Assay results published in paper PMC4140785.

Key:
[1] = target: full-length HIV-1 gp120 from the clade B YU2 strain (HIV-1 (clade B, strain YU2)) (UniProt P35961); test: SPR
[2] = target: CD4-mimetic miniprotein M48U1; test: SPR

Substance: CD4-mimetic miniprotein M48U1 (designed binder)
- Kd [1]: 15.4 pM

Substance: CD4-mimetic miniprotein M48U7 (designed binder)
- Kd [1]: 180 pM
- koff [1]: 0.000446 s⁻¹
- kon [1]: 2.42e+06 M⁻¹ s⁻¹

Substance: full-length HIV-1 gp120 from the clade B YU2 strain (from UniProt P35961 32-498) (natural protein)
- Kd [2]: 14 pM
